Measurements published in article PMC5772342, “Metal-dependent allosteric activation and inhibition on the same molecular scaffold: the copper sensor CopY from Streptococcus pneumoniae† †Electronic supplementary information (ESI) available. See DO”.

What was measured:
CopY C101A [1] = target: T1, CopY C101A (Streptococcus pneumoniae D39, UniProt A0A0H2ZLC1 1-131, C101A); test: EMSA; Zn1 CopY dimer; 5 mM MgCl2; 200 mM NaCl; FA: 10 mM HEPES pH 7.0, 0.23 M NaCl, 2 mM TCEP, 40 uM ZnSO4 or 2 mM EDTA, 25 C; EMSA: 10 nM DNA, 25 mM HEPES pH 7.0, 200 mM NaCl, 5 mM MgCl2, 50 ug/mL BSA (apo: 5 mM EDTA), 25 C; conditions: protein: recombinant; tags: N-terminal His6-TEV, cleaved; three non-native N-terminal residues remain (printed GAM); chain copies: 2; label: 5' fluorescein on strand 1; blunt
CopY C101A [2] = target: T1, CopY C101A; test: fluorescence anisotropy; Zn1 CopY dimer; 40 uM ZnSO4; 0.23 M NaCl; FA: 10 mM HEPES pH 7.0, 0.23 M NaCl, 2 mM TCEP, 40 uM ZnSO4 or 2 mM EDTA, 25 C; EMSA: 10 nM DNA, 25 mM HEPES pH 7.0, 200 mM NaCl, 5 mM MgCl2, 50 ug/mL BSA (apo: 5 mM EDTA), 25 C; conditions: protein: recombinant; tags: N-terminal His6-TEV, cleaved; three non-native N-terminal residues remain (printed GAM); chain copies: 2; label: 5' fluorescein on strand 1; blunt

B1: 32-bp cop operator (single cop box) (dsDNA)
DNA 1: GTCTATAATTGACAAATGTAGATTTTAAGAGC
DNA 2: GCTCTTAAAATCTACATTTGTCAATTATAGAC
- Ka (CopY C101A [1]): 2e+07 M⁻¹
- Ka (CopY C101A [2]): 1e+07 M⁻¹
